Molecular target: T1, N-terminally TARGET-tagged human afamin (human, UniProt P43652 22-599)
T1 construct: also called hAFM; (TARGET-tagged) afamin; not shown: N-terminal TARGET tag
T1 sequence (looked up): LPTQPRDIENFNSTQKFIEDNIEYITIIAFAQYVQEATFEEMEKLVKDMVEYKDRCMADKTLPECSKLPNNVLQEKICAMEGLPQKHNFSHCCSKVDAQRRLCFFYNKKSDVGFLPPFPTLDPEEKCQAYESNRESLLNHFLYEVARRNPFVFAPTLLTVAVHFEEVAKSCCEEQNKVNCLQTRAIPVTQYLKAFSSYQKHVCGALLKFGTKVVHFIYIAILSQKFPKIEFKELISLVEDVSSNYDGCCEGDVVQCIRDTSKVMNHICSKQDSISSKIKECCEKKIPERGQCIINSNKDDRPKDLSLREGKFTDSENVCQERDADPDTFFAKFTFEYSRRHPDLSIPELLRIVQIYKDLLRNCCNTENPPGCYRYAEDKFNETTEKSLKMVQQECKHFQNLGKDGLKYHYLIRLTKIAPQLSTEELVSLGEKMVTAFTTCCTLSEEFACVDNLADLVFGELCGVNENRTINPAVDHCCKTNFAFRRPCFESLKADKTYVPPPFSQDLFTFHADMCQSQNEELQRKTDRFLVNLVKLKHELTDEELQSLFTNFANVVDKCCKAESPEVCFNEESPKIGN
Assay: co-immunoprecipitation on P20.1-sepharose (TARGET tag on afamin), western blotting with biotin-modified NZ-1
Procedure: The transfected cells of each type were cultured for 90 hours in a serum-free culture medium, and the supernatants were separately harvested. To 1 mL of each supernatant, 20 μL of NZ-1-sepharose or P20.1-sepharose was added, and the mixture was rotated end over end for 1 hour. The sepharose was precipitated by centrifugation, and the supernatant was removed. After the sepharose was washed 3 times with 1 mL of TBS, 30 μL of SDS sample buffer was added, and elution was performed under heating at 95° C. for 2 minutes. The eluate was subjected to western blotting using biotin-modified NZ-1.

binding result: binds
B1: N-terminally PA-tagged human Wnt3 (ligand)
chain: GVAMPGAEDDVVGYPIWWSLALGQQYTSLGSQPLLCGSIPGLVPKQLRFCRNYIEIMPSVAEGVKLGIQECQHQFRGRRWNCTTIDDSLAIFGPVLDKATRESAFVHAIASAGVAFAVTRSCAEGTSTICGCDSHHKGPPGEGWKWGGCSEDADFGVLVSREFADARENRPDARSAMNKHNNEAGRTTILDHMHLKCKCHGLSGSCEVKTCWWAQPDFRAIGDFLKDKYDSASEMVVEKHRESRGWVETLRAKYSLFKPPTERDLVYYENSPNFCEPNPETGSFGTRDRTCNVTSHGIDGCDLLCCGRGHNTRTEKRKEKCHCIFHWCCYVSCQECIRIYDVHTCK

Reference: patent US20170355953A1 (OSAKA UNIVERSITY, published 2017)
